Key:
Assay in all cases: FLAG immunoprecipitation and LC/ESI-MS/MS
Details in all cases: HEK293T cells, three biological replicates; read off a plot
ILF3 = molecular target: ILF3
HNRNPA2B1 = molecular target: HNRNPA2B1
MYH9 = molecular target: MYH9
SART3 = molecular target: SART3
FUBP3 = molecular target: FUBP3

- other: log2 fold change (ILF3): -1.6
- other: log2 fold change (HNRNPA2B1): -1.3
- other: log2 fold change (MYH9): 0.43
- other: log2 fold change (SART3): -2.5
- other: log2 fold change (FUBP3): -2.5
Substance: FLAG-tagged DND1 wild-type (Dead End, full-length human protein 1-353) (from UniProt Q8IYX4) R98A
